Results published in patent US10822379 (UNIVERSITY OF PITTSBURGH OF THE COMMONWEALTH SYSTEM OF …, dated 2020).

B1: Clone #9 (ab9) (other)
VH: EVQLVESGGGLVQPGGSLRLSCKGSGFTLSDYYIGWVRQAPGKGLEWIGSMYHSGRTYINPSLKSRVTISRDNSKNTLYLQMNSLRAEDTAVYYCARGGITGTTPIDYWGQGTLVTVSS
notes: also called #9 (VH domain)
B2: Clone #2 (ab2) (Fab, V domains shown)
VH: QVQLQQSGPGLVKPSQTLSLTCAISGDSVSSNSAAWNWIRQSPSRGLEWLGRTYYRSKWYNDYAVSVKSRITINPDTSKNQFSLQLNSVTPEDTAVYYCAREQQQLVPHYYYYGMDVWGQGTTVTVSS
VL: DVVMTQSPSVSGSPGQSVTISCTGTTSDVGGYNYVSWYQQRPGKAPKLMIYEVSKRPSGVPDRFSGSKSGNTASLTVSGLQAEDEADYYCSSYTSSSTLFGTGTKLTVLG
notes: also called #2 (Fab)
B3: Clone #1 (ab1) (Fab, V domains shown)
VH: EVQLVESGGGLVQPGGSLRLSCAASGFTVSSNYMSWVRQAPGKGLEWVSVIYSGGSTYYADSVKGRFTISRHNSKNTLYLQMNSLRAEDTAVYYCARGYGDYYFDYWGQGTLVTVSS
VL: DVVMTQSPATLSLSPGEKATLSCRASQSVSSYLAWYQQKPGQPPKLLIYWASTRESGVPDRFSGSGSGTDFTLTISSLQAEDVAVYYCQQYGSSPLTFGGGTKVEIKR
notes: also called #1 (Fab)
B4: Clone #8 (ab8) (other)
VH: EVQLVESGGGLVQPGGSLRLSCAASGFTFDDYAMSWVRQAPGKGLEWIGRMYNNGRTSYNPSLKSLVTISRDNSKNTLYLQMNSLRAEDTATYYCARDNLGYRPSENLYGMDVWGQGTTVTVSS
notes: also called #8 (VH domain)
B5: Clone #7 (ab7) (other)
VH: EVQLVESGGGLVQPGGSLRLSCAASAFDFYDYEMSWVRQAPGKALEWIGEIHHSGSTYYNPSLKGRFTISRDNSKNTLYLQMNSLRAEDTAVYYCAKDVSYHADVWGQGTTVTVSS
notes: also called #7 (VH domain)
B6: Clone #4 (ab4) (scFv)
scFv: EVQLVQSGGGLVQPGGSLRLSCAASGFTFSNYAMTWVRQAPGKGLEWVSTIAGSGDNTYYADSVKGRFTISRDNDKNTLYLQMNSLRADDTAVYYCARDRYYTMDVWGQGTLVTVSSGGGGSGGSGSSGGGSQSVVTQPPSASGSPGQSVTISCTGTSSDVGGYNHVSWYQQHPGKAPKLLIYEVSERPSGVPDRFSGSKSDNKASLTIIGLQTEDEADYYCQSYDSSLSGSLFGTGTKLTVLR
notes: also called #4 (scFv)
B7: Clone #5 (ab5) (other)
VH: KVQLQQWGAGLLKPSETLSLTCAVYGGSFSGYYWSWIRQPPGKGLEWIGEINHSGSTNYNPSLKSRVTISVDTSKNQFSLKLSSVTAADTAVYYCVRLPMIKKSFDIWGPGTLVTVSS
notes: also called #5 (VH domain)
B8: Clone #6 (ab6) (other)
VH: EVQLVESGGGVVQPGRSLRLSCAASGFTFSSYAMHWVRQAPGKGLEWIGNIYHDGSTFYNPSLKSLVTISRDDSTNTLYLQMNSLRAEDTAIYYCARVWLYGSGYMDVWGKGTLVTVSS
notes: also called #6 (VH domain)

These binders were tested against RBD of the S protein of SARS-CoV-2 (SARS-CoV-2, UniProt P0DTC2 330-532) (assay: ELISA on SARS-CoV-2 RBD).

First: B1
Second: B2
The EC50 of the first is 30-fold higher: 60 nM for the first, 2 nM for the second. The second is the more potent here.

B3 and B4 are within 1.5-fold of each other in EC50: 20 nM for the first, 25 nM for the second.

First: B5
Second: B6
The EC50 of the first is 2.5-fold lower: 4 nM for the first, 10 nM for the second. The first is the more potent here.

Compared with B7, B8 is 3.3-fold lower in EC50: 20 nM for the first, 6 nM for the second. The second is the more potent here.
